Experimental data from article PMC12828747, “Nanobodies against Clostridioides difficile CDTb provide a toolkit for potent toxin neutralization and highly sensitive quantitation” (The Journal of Biological Chemistry, 2025).
Read-outs that look alike come from different tables or passages of the source.

Tests used:
[1] = target: T1, CDTb_(D1–D4) monomer (residues 43–876) (Clostridioides difficile, strain not …); experiment: SPR; Carterra LSA^XT, SAHC30M chip, 25 °C; biotinylated Nbs captured at eight densities; CDTb constructs injected at 0.3–300 nM (fourfold dilutions) without regeneration; HBS-T (10 mM HEPES pH 7.4, 150 mM NaCl, 0.05% Tween-20) with 0.5 mg/ml BSA; one-to-one kinetics model; conditions: both partners purified
T1 construct: also called full-length (pro) CDTb; pro-CDTb
T1 chain: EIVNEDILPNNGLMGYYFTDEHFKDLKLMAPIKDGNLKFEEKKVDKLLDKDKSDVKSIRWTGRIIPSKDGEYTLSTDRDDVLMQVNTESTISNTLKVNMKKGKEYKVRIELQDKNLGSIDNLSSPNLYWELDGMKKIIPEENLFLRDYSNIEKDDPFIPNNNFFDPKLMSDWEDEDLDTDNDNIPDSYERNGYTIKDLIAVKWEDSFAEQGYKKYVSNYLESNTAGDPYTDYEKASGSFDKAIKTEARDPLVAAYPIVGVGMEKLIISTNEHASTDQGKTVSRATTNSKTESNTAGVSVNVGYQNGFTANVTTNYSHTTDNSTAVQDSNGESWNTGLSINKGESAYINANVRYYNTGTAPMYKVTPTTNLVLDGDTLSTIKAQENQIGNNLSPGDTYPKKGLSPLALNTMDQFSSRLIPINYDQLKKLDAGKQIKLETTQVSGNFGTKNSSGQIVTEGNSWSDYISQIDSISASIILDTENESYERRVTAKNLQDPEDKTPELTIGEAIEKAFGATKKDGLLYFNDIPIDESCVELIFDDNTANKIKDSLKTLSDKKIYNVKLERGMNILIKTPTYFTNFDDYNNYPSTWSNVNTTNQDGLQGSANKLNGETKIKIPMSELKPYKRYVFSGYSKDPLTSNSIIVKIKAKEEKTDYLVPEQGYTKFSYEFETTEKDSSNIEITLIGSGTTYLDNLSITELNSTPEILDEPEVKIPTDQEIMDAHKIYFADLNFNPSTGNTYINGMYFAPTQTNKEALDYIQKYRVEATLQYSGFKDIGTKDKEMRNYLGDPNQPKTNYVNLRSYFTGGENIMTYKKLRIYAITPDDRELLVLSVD

CDTb_(D2–D3′) (210–749) [2] = target: T2, CDTb_(D2–D3′) (210–749) (Clostridioides difficile, strain not …, UniProt O32739); experiment: SPR; […] (10 mM HEPES pH 7.4, 150 mM NaCl, 0.05% Tween-20) with 0.5 mg/ml BSA; […]; conditions: both partners purified
[3] = target: T3, native CDTb protein in cecal contents of mice infected with C. difficile R20291 (Clostridioides difficile R20291, UniProt A0A9R0BM17, strain); experiment: ELISA; sandwich ELISA on cecal material of mice infected with R20291 (diluted to 10 mg/ml in PBS-T + 2% BSA): native CDTb bound by the coated capture Nb; conditions: one partner purified
T3 construct: CDTb made by C. difficile R20291 during infection of mice; source: endogenous, C. difficile R20291, in cecal material of infected mice

CDTbD4 (760–876) [4] = target: T4, CDTbD4 (760–876) (Clostridioides difficile, strain not …, UniProt O32739); experiment: SPR; Carterra LSA^XT, SAHC30M chip, 25 °C; biotinylated Nbs captured at eight densities; CDTb constructs injected at 0.3–300 nM (fourfold dilutions) without regeneration; HBS-T (10 mM HEPES pH 7.4, 150 mM NaCl, 0.05% Tween-20) with 0.5 mg/ml BSA; one-to-one kinetics model; conditions: both partners purified
T4 construct: also called domain 4

CDTbD3′ [5] = target: T5, CDTbD3′ (Clostridioides difficile, strain not …); experiment: as above; conditions: both partners purified
T5 chain: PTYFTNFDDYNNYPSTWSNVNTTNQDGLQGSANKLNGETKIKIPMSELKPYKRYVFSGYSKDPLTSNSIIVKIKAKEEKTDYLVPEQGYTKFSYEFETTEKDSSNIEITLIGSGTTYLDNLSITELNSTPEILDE

[6] = target: T6, activated monomeric CDTb (75 kDa-activated monomer) (Clostridioides difficile); experiment: ELISA; sandwich ELISA: nonbiotinylated capture Nb coated (200 ng/well), purified CDTb (activated monomer or heptameric sample) in PBS-T + 2% BSA, biotinylated detection Nb (50 ng/well), streptavidin-HRP; room temperature; conditions: both partners purified
T6 construct: source: recombinant pro-CDTb trypsinized in vitro, purified (SEC)
T6 chain: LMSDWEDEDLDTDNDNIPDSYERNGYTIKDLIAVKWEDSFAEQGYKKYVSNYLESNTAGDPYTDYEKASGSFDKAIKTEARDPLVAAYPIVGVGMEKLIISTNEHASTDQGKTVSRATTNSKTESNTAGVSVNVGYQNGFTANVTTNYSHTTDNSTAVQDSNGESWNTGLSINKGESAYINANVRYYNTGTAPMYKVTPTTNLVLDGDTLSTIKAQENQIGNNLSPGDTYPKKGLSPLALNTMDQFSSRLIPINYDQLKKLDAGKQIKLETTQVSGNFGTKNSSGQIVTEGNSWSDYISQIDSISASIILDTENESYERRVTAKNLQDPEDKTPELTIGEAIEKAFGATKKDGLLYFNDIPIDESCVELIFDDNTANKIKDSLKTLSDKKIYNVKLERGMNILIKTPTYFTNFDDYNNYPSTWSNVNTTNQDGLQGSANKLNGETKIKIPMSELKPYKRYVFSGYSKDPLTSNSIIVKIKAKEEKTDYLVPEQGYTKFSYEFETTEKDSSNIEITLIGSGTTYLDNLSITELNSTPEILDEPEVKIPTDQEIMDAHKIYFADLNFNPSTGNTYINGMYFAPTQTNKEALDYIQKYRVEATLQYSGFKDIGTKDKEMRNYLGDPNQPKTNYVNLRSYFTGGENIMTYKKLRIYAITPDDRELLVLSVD

heptameric CDTb = target: T7, heptameric CDTb (Clostridioides difficile, strain not …); experiment: as above; conditions: both partners purified
T7 construct: the ELISA text says only heptameric CDTb; also called CDTb heptamer; CDTb oligomers
T7 chain: T6 chain

CDTb_(D2–D3′) (210–749) [7] = target: T2, CDTb_(D2–D3′) (210–749); experiment: SPR; […] (10 mM HEPES pH 7.4, 150 mM NaCl, 0.05% Tween-20) with 0.5 mg/ml BSA; […]; conditions: both partners purified; remark: listed apart in the source
CDTbD4 (760–876) [8] = target: T4, CDTbD4 (760–876); experiment: SPR; Carterra LSA^XT, SAHC30M chip, 25 °C; biotinylated Nbs captured at eight densities; CDTb constructs injected at 0.3–300 nM (fourfold dilutions) without regeneration; HBS-T (10 mM HEPES pH 7.4, 150 mM NaCl, 0.05% Tween-20) with 0.5 mg/ml BSA; one-to-one kinetics model; conditions: both partners purified; remark: listed apart in the source
CDTbD3′ [9] = target: T5, CDTbD3′; experiment: as above; conditions: both partners purified
[10] = target: T1, CDTb_(D1–D4) monomer (residues 43–876); experiment: as above; conditions: both partners purified
CDTbD3′ [11] = target: T5, CDTbD3′
[12] = target: T1, CDTb_(D1–D4) monomer (residues 43–876)
[13] = target: T6, activated monomeric CDTb (75 …); experiment: cell-based or functional assay
[14] = target: T3, native CDTb protein in cecal contents …; experiment: ELISA; sandwich ELISA on cecal material of mice infected with R20291: biotinylated detection Nb on the captured native CDTb; conditions: one partner purified

B1: Nb G2 (VHH)
VHH: QVQLQESGGGLVQPGGSLTLSCKASGIVFSTHTLAWYRQAPGKHRNVLAVITSAGIPNYDTDLKGRFTISRDNAKNTVYLQMNSLEPEDTAVYYCNARGPHPTVTGTTANYWGQGTQVTVSS
notes: also called C1G2; source: Expi293F, transfected, purified from supernatant (TALON resin)
B1 gave a Kd [1] of at most 0.029 nM, a koff [1] of at most 1e-05 s⁻¹ and a kon [1] of 380000 M⁻¹ s⁻¹. For the same binder, the Kd (CDTb_(D2–D3′) (210–749) [2]) was at most 0.022 nM, the koff (CDTb_(D2–D3′) (210–749) [2]) was at most 1e-05 s⁻¹ and the kon (CDTb_(D2–D3′) (210–749) [2]) was 480000 M⁻¹ s⁻¹. For the same binder, the binding result [3] was “binds”, the binding result (CDTbD4 (760–876) [4]) was “no binding” and the Kd (CDTbD3′ [5]) was 0.18 nM. For the same binder, the koff (CDTbD3′ [5]) was 4.1e-05 s⁻¹, the kon (CDTbD3′ [5]) was 240000 M⁻¹ s⁻¹ and the binding result [6] was “binds”.

B2: Nb A9 (VHH)
VHH: QVQLQESGGGLVQPGGSLRLSCTSSTNMLEFTAVAWWRQAPGKQRDLLAVITRAGVPNYADSKGRFAISRDNAKNTVDLLINTLEPDDTAVYTCNARTSGNINYWGQGTQVTVSS
notes: also called C1A9; source: Expi293F, transfected, purified from supernatant (TALON resin)
With B2 the Kd [1] was 0.024 nM, the koff [1] was 3.2e-05 s⁻¹ and the kon [1] was 1e+06 M⁻¹ s⁻¹. It also gave a Kd (CDTb_(D2–D3′) (210–749) [2]) of 0.02 nM, a koff (CDTb_(D2–D3′) (210–749) [2]) of 1.4e-05 s⁻¹ and a kon (CDTb_(D2–D3′) (210–749) [2]) of 710000 M⁻¹ s⁻¹. The binding result [3] was “binds”, the binding result (CDTbD4 (760–876) [4]) was “no binding” and the Kd (CDTbD3′ [5]) was at most 0.031 nM. The koff (CDTbD3′ [5]) was at most 1e-05 s⁻¹, the kon (CDTbD3′ [5]) was 330000 M⁻¹ s⁻¹ and the binding result (heptameric CDTb) was “binds”. B2: binds [6].

B3: Nb H8 (VHH)
VHH: QVQLQESGGGLVQPGRSLRLSCEASDFSLNTFGAGWFRQVPGKEREGVSCISPSNSSTYYADSVKGRFTISRDNAKNTIYLQMNSLKPEDTGVYFCAARPITSAQALCTLLVSDSFTSWGQGTQVTVSS
notes: also called C1H8; source: Expi293F, transfected, purified from supernatant (TALON resin)
For B3, the binding result (CDTb_(D2–D3′) (210–749) [7]) was “no binding”, the Kd (CDTbD4 (760–876) [8]) was 0.63 nM and the koff (CDTbD4 (760–876) [8]) was 0.00083 s⁻¹. The kon (CDTbD4 (760–876) [8]) was 1.4e+06 M⁻¹ s⁻¹, the Kd [1] was 1.6 nM and the koff [1] was 0.00089 s⁻¹. For the same binder, the kon [1] was 560000 M⁻¹ s⁻¹, the binding result (CDTbD3′ [9]) was “no binding” and the Kd [10] was 1.9 nM. B3: binds [6].

B4: C1G1 (VHH)
VHH: QVQLQESGGGLVQPGGSLTLSCAASGSIGSGSVMSWYRQAPGKERELVAQESGGRLRSYAKSVMGRFTISRDNSNNTVTLQMNNLKTDDTAIYYCHLVQFSGRYWGHGTQVTGS
B4: binds (CDTbD3′ [11]); binds [12].

B5: Nb H12 (VHH)
VHH: QVQLQESGGGLVQPGGSLRLSCAASGDIFSFYTMGWYRQAPGKQRELVATITSPGTTNYADSVKGRFTISRDNAKNMVYLQMTSLKPEDTAVYYCNADRILTTDPQFKYWGQGTQVTVSS
notes: also called C1H12; source: Expi293F, transfected, purified from supernatant (TALON resin)
With B5 the “EC50 of neutralization of CDT-induced rounding of Vero-GFP cells (1 nM CDTa + 7 nM activated monomeric CDTb, Nb 0.6–100 nM, 3 h postintoxication)” value [13] was about 6 nM, the binding result (CDTb_(D2–D3′) (210–749) [7]) was “no binding” and the Kd (CDTbD4 (760–876) [8]) was 0.042 nM. For the same binder, the koff (CDTbD4 (760–876) [8]) was 0.00013 s⁻¹, the kon (CDTbD4 (760–876) [8]) was 3.1e+06 M⁻¹ s⁻¹ and the binding result [14] was “binds”. The Kd [1] was 0.05 nM, the koff [1] was 6.7e-05 s⁻¹ and the kon [1] was 1.4e+06 M⁻¹ s⁻¹. B5: no binding (CDTbD3′ [9]).

B6: Nb C6 (VHH)
VHH: QVQLQESGGGLVEPGGSLRLSCVASGIVVASSTMSWYRQAPGKQRELVAQIFSGGNTNYRDSVRGRFTISKDNAKNTAYLQMDNLEPDDTAVYYCYARGFWGQGTQVTVSS
notes: also called C1C6; source: Expi293F, transfected, purified from supernatant (TALON resin)
B6 was tested, and the binding result [14] was “binds”, the Kd [1] was 0.018 nM and the koff [1] was 1.4e-05 s⁻¹. It also gave a kon [1] of 790000 M⁻¹ s⁻¹, a Kd (CDTb_(D2–D3′) (210–749) [2]) of 0.035 nM and a koff (CDTb_(D2–D3′) (210–749) [2]) of 4.4e-05 s⁻¹. The kon (CDTb_(D2–D3′) (210–749) [2]) was 1.3e+06 M⁻¹ s⁻¹, the binding result (CDTbD4 (760–876) [4]) was “no binding” and the binding result (CDTbD3′ [9]) was “no binding”. B6: binds [6].
